From patent US20190360025A1
pKd: −log10 of the molar value.

How the values were obtained:
[1] = biological target: interleukin 6 (IL-6), R&D Systems 206-IL-010 (UniProt P05231); experiment: c-PLA, buffer; IL-6 1.00E-13 M
[2] = biological target: interleukin 6 (IL-6), R&D Systems 206-IL-010 (UniProt P05231); experiment: c-PLA, buffer; IL-6 1.00E-08 M
[3] = biological target: interleukin 6 (IL-6), R&D Systems 206-IL-010 (UniProt P05231); experiment: t-PLA, buffer; IL-6 1.00E-13 M
[4] = biological target: interleukin 6 (IL-6), R&D Systems 206-IL-010 (UniProt P05231); experiment: t-PLA, buffer; IL-6 1.00E-14 M
[5] = biological target: interleukin 6 (IL-6), R&D Systems 206-IL-010 (UniProt P05231); experiment: BLI (Octet RED), antibody on protein G sensors, 1:1 global fit
[6] = biological target: interleukin 6 (IL-6), R&D Systems 206-IL-010 (UniProt P05231); experiment: c-PLA, buffer; IL-6 1.00E-09 M
[7] = biological target: interleukin 6 (IL-6), R&D Systems 206-IL-010 (UniProt P05231); experiment: t-PLA, buffer; IL-6 1.00E-11 M
[8] = biological target: interleukin 6 (IL-6), R&D Systems 206-IL-010 (UniProt P05231); experiment: SPR, off-rate given by the software, beyond the sensitivity range of the instrument
[9] = biological target: interleukin 6 (IL-6), R&D Systems 206-IL-010 (UniProt P05231); experiment: t-PLA, buffer; IL-6 1.00E-09 M
[10] = biological target: interleukin 6 (IL-6), R&D Systems 206-IL-010 (UniProt P05231); experiment: t-PLA, buffer; IL-6 1.00E-12 M
[11] = biological target: interleukin 6 (IL-6), R&D Systems 206-IL-010 (UniProt P05231); experiment: c-PLA, buffer; IL-6 1.00E-11 M
[12] = biological target: interleukin 6 (IL-6), R&D Systems 206-IL-010 (UniProt P05231); experiment: SPR, value from the software's off-rate, beyond the sensitivity range of the instrument
[13] = biological target: interleukin 6 (IL-6), R&D Systems 206-IL-010 (UniProt P05231); experiment: t-PLA, buffer; IL-6 1.00E-08 M
[14] = biological target: interleukin 6 (IL-6), R&D Systems 206-IL-010 (UniProt P05231); experiment: SPR (Biacore T200), biotinylated antibody on CAP chip, 1:1 fit
[15] = biological target: interleukin 6 (IL-6), R&D Systems 206-IL-010 (UniProt P05231); experiment: SPR (Biacore T200), 1:1 global fit
[16] = biological target: interleukin 6 (IL-6), R&D Systems 206-IL-010 (UniProt P05231); experiment: SPR, isoaffinity graph
[17] = biological target: interleukin 6 (IL-6), R&D Systems 206-IL-010 (UniProt P05231); experiment: t-PLA, buffer; IL-6 1.00E-10 M
[18] = biological target: interleukin 6 (IL-6), R&D Systems 206-IL-010 (UniProt P05231); experiment: c-PLA, buffer; IL-6 1.00E-10 M
[19] = biological target: interleukin 6 (IL-6), R&D Systems 206-IL-010 (UniProt P05231); experiment: c-PLA, buffer; IL-6 1.00E-12 M
[20] = biological target: interleukin 6 (IL-6), R&D Systems 206-IL-010 (UniProt P05231); experiment: c-PLA, buffer; IL-6 1.00E-14 M

Sequence of UniProt P05231 (P05231 30-212 limits assumed): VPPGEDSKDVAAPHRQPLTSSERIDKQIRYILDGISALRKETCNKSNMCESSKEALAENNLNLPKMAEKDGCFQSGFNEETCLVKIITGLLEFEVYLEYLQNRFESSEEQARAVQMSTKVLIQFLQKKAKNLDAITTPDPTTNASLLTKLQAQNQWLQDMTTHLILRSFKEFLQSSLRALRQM

- Counts [1]: 84.3
- SBR [1]: 4.6
- Counts [2]: 137000
- SBR [2]: 7540
- Counts [3]: 2.68e+06
- SBR [3]: 1.8
- Counts [4]: 3.03e+06
- SBR [4]: 2.1
- pKd [5]: > 11.60
- koff [5]: < 1e-06 s⁻¹
- kon [5]: 402000 M⁻¹ s⁻¹
- Counts [6]: 312000
- SBR [6]: 17200
- Counts [7]: 3.72e+07
- SBR [7]: 26
- koff [8]: 4.65e-07 s⁻¹
- Counts [9]: 3.87e+09
- SBR [9]: 2670
- Counts [10]: 1.16e+07
- SBR [10]: 8
- Counts [11]: 1980
- SBR [11]: 109
- pKd [12]: 12.70
- Counts [13]: 2.05e+09
- SBR [13]: 1410
- pKd [14]: > 11.37
- koff [14]: < 1e-05 s⁻¹
- kon [14]: 2.3e+06 M⁻¹ s⁻¹
- pKd [15]: > 11.37
- koff [15]: < 1e-05 s⁻¹
- kon [15]: 2.33e+06 M⁻¹ s⁻¹
- pKd [16]: > 11.30
- Counts [17]: 3.88e+08
- SBR [17]: 267
- Counts [18]: 30800
- SBR [18]: 1700
- Counts [19]: 141
- SBR [19]: 7.8
- Counts [20]: 55.2
- SBR [20]: 3
Substance: affinity-purified polyclonal anti-IL-6 antibody (R&D Systems AF-206-NA)
